The DeepSol protein solubility set

Assay: soluble on expression in E. coli; label from the status in PepcDB or PDB records

Soluble on expression in E. coli, soluble:
MDSAREVSDGRLTVEGFSVASRAFADKWKIHNQSFPPWSWVPLINRTLLVSKKEEGYLSLEKIIILSSLEEEIPEDESLNVATDCLEKEETVDHTILVPTMENEAHYYDFHIVYSASYKVPVLYFRGYCSGGEPLALDVIKKDVPSCSVSLLLESKWTFITQEEHPYLNRPWFKLHPCGTEDWIKLLSQSSSSSGCQMPIVLYLVSWFSVVGQVVGLRIPLEMLN, MDTRTRHLKVSNCPNNSYALANVAAVSPNDFPNNIYIIIDNLFVFTTRHSNDIPPGTIGFNGNQRTWGGWSLNQDVQAKAFDLFKYSGKQSYLGSIDIDISFRARGKAVSTVFDQDELAKQFVRCYESQIFSPTQYLIMEFQGHFFDLKIRNVQAIDLGDIEPTSAVATGIETKGILTKQTQINFFKGR, MDTTPEPFTGKMGSYILIAPDGDAAMIDSGPKTSWERVREELQSMGVRLRYVILTHIHLDHASAAGSIVRSLDTVEAVYVHPRGARHMADPERLWQASKQFLGDYADFFGKPEPVPEGKIVVPEDGEVLELPGGVKLHVIYTPGHASHHMSFYLPQEGVMFTGDSAGVSLKDDDGTLVEFPTTPPPFKPVEYINSLDAMARFKPEKLAFAHYGMRSGGMEYLRWHREDILRWVREAVEYVSRGGGDAEELMRLLADKLENAGKAYRARNPIISEFMYRGTVLGLMDTAVRGEWKRLHL, MDVGKLESFIVEKMAERKVPGISISIIKDGDVVYAKGFGYRNVEARLPSTPETIYGIGSITKSFTALAIMKLVEEGGLSLDDPVEKFVNIKLRPFGEPVTVHHLLTHSSGIPSLGYAEAFIDGMVGGDNWLPVSTPEETIAFARDMEKWAVAKPGERFFYLNTGYVLLGKIIEKVSGVSYEEYIKKKILEPLGMNRSYFFKEEVEKDKDVAMGYILDKEGRLVPQPFPYGITADGGLLSSVLDLAKYLKMYIERDESIVSKEYIEKMETSYIKVPWEIFGGEGYGYGLIIYPNFLGEKLVGHSGSVGMYTGYIGYIPEKKIGVAVLENSSGYPPSYIAMYALALLLGKNPEKELPFIYRERILKKVEGRYMGYKGTIKFEVKVDGDVVYLRALGRAFTYTIPLFPEVLEEDFIKCYTLSNGRKMYAEFYIKDNKVDLIFERYRLIKS, MDVLSLLRVFGRRRRGLRDLEVSEPEFGDRPEYLEEYVRRFTSETGREEPELVEKIPSSMKNAREFNVIYPVGFGIFIHAYNDPLSESGYNKYVVVEPPRPPEDLVRLIDYKIALVLSEEDAPRSSEEKKRILLAALDKVVAVTSSERIAGGNGGNGSWQYAVKRGRIVIPERYYNYLKYHFIREKVGVGPLEPFLRDPYLEDISCNGVGPVYVVHKMFRSLESSVRFETEGELDDFILKLGEKIGKPISHARPVVDATLPDGSRINIVFGSDVSLKGSNFTIRKVSKIPISVTQLIKWGTFDARIAAYMWMMLEEGMSVFICGETASGKTTSLNAISVFIRPDAKIVTIEDTAEVVLPHPNWTRELTRNTGKPETSVTMFDLLRAALRQRPNYIIVGEIRGAEGNIAFQAMQTGHPVMATFHAANLSRLLQRLTNHPINVPKTNIDSLNIAWFQSAVHVKGFPARRVLEIDEIIGYDPSSGAIAAVPSFTWDPVRDKFIFSGRGASYLLEEKIATMKGIPRRELSIIYEELELRRRFLQTLVDKNILDYFDVYKAIVRAYNIGVEEALKRLERDELLS, MDWQNRFSVLNLSSHDPLPELMLTHLTGWGAITLVGADKKAYLQGQVTCNVVSLQEQQVTFGAHCDAKGKVWSVFRLFHHHDGYAMFQPQSAMEVELRELKKYAIFSKVTIAESSDIALGVMGSQADAWIDTVSETTGDVRRIAGGTAVRMSPQRWLLLVNAEQAEQYVNAWQGLHVEQSLWTRMDIEEAVPVVTQTAQNEHIPQALNVQAVDGISFTKGCYTGQETVARAKYRGINKRAMYIVKGNLSAPLSQDEPVVLERAVGENWRSAGALLTHYRFTDSIAIGLIVLPNDLEHDVKLRLAAQPDTRWHIQPLPYSLSDELEHHHHHH, MDYNVKDFGALGDGVSDDRASIQAAIDAAYAAGGGTVYLPAGEYRVSAAGEPGDGCLMLKDGVYLAGAGMGETVIKLIDGSDQKITGMVRSAYGEETSNFGMRDLTLDGNRDNTSGKVDGWFNGYIPGGDGADRDVTIERVEVREMSGYGFDPHEQTINLTIRDSVAHDNGLDGFVADYLVDSVFENNVAYANDRHGFNVVTSTHDFVMTNNVAYGNGSSGLVVQRGLEDLALPSNILIDGGAYYDNAREGVLLKMTSDITLQNADIHGNGSSGVRVYGAQDVQILDNQIHDNAQAAAVPEVLLQSFDDTAGASGTYYTTLNTRIEGNTISGSANSTYGIQERNDGTDYSSLIDNDIAGVQQPIQLYGPHSTVSGEP

Soluble on expression in E. coli, not soluble:
MDSDEEILSSYSSLTVTSRNETTISTRDSASNAMPVVVVDDEIFEDASSDISILTKRQESSSIHLDRSKMRKAVHQDLCTHDQKILEPLFLRKCEPHRVRQGTAPPNVIPIQKVENVEANKKFTGHSALLVSLNTPTYCVRYLAANAVHTPKNVLIFASPLSYVRFVARPDPQRTNQSVFEDPSETVRLMMAPDVAKVAQKMLPKWQTVTFTLAFGKHVAVKYRIIEVRKQPVTYVKAKADRVKRVSTSTLYRTEPVQRVDYWRSFKSNELKLSTVEKNDPQIVKRVFLEQQSLNWDPSGVIGTEKEHHHKTIVKSKKIKTGEELNLMWQRTDFH, MDSKKILYISQEIFPYLPETDISVVSRKLPQTIQERGNEVRIFMPRYGIINERRNQLHEVIRLSGINMIINDNDHPLIIKVASIQSARMQVYFIDNDDFFKRKTMYDIKPKQENDNDERAIFFVRGALEAIKKLRWIPDVIHCHGWFTALAALYLKKMYADDPCLQKAKVVYSVYDDAGQGVIPETLFGKLGFDKITPDDLSVMEQSSDYLALNRLAIRYADGVIQGSETIAPELTDYISSLEGKAFLPYQGKEDYEEAFDNFYSDLLTANLEHHHHHH, MDSRVWLPLIGAHLLPRDISVITQMIANNNNTSISRSSTNSSKPEEKNSKKFLIERFLDDDPSPPASILSPSPKAAIPSPIINPAVEFVNGGYGVKNPLAPLISSFETTSIPCSTVSPSSLISSSKDEFQDSLTCHICGKKFGLQRLLNRHIKCHSDLKRYLCTFCGKGFNDTFDLKRHTRTHTGVRPYKCEQCEKSFTQRCSLESHLRKVHGVTHQYAYKERRSKVFVCEDCGYTDEKFEVYLSHIKVVHPFSAAYLRFTQLQKKNSSMKPEQLSKISL, MDTDAIRSEIFGQLARPDNSGIPKYRRLSNILVEAIRRGVWQPGDRLPAEEQLTEMTPFSLGTVQRALRALTDEGLVIRMQGHGNFVADQQRQMADPWHCRFLDDESDGIVPIYSKAVQRAVVTPSETGPWQRYLHSGSVMRLDRIINVNDEFRIFSRFYADRELLQPLWHVPLEELDGANFKDIIMRQVGLPITEIDRSVRIRRIDAQAARLIGVAPEATVLFMQAVARAGRDACIYYQEFYIPETGRALQLPEQRPRVHGR, MDTSSFETDLSLFKYDDLEALPDEYRELTPTARTERIEAARAELGDDVVVLGHNYQRREIVEHADFVGDSYQLSKEAANADADYVIFGGVTFMAESADIITDDSQSVILPSMEASCPMAGMAEALQVDAAWADITAAAPDETIIPITYMNSYADLKAFCAEQGGLVCTSSNAHRAFEWAFERGDKVLFLPDKHLGENTAHRLGMADATVEWDPWAAEGKTAEEVADADIVLWDGYCQVHERFTPEHVAEVRADHEDANVVVHPECRREVVEAADVVGSTATITETVADADPGETWAIGTEIHLANHLQRWHPEVNVVPLCGDACMDCNAMRQIDPNYLAWVLEELVEGRERNVIEVDSEEAELAQVGLDRMLELLEHHHHHH, MDTTYGPPAPALSGLTLGIREYSLFQAVLLVIDRLRDAHPHLSEDDLYDQLEFQANPSLGFPSSDVSRVEFFHEHGQMRARMQFNLIGLVGSGSPLPAFYGEQALGDSEDGNPTRNFLDLFHHRLQRLMLPIWKKYRYRASFESGALDPFSAQLFALIGLGGEEIRRAQELNWKRLLPYLGLLSLRAHSAALIEAVLRYYFKHAELTIEQCIERRVEILDEQRNRLGSANSMLGEDLVLGDHVRDRSGKFRIHIRELDWQRFHEFLPIGFGYQPLCALVRFTLRDPLDYDIRLVLRQEEIRELRIGEQNACRLGWTSWLGREKADGVVTLGSKIH, MDTVTKLSIIIPAWNEETGIARTLETLLALTAGRGDTEIIVSVSGNDRTKAIARTFPVVVCHSEKGRAVQMNAGAKLATGSILYFLHADTTPPPSFCDDIFSAIERGARAGCFRMTFDDPDWLMQLYGWFTQFPLPVCRGGDQSLFITKELFGQIGGFDERLQIMEDIEIIDRLQRHAGFHILDSTVTTSARKYHTNGTVRLQAIFGTIHLMYALGFSQKNIVAFYRDSIRLEHHHHHH, MDVADSTSETPPVFDHDNLALAAQTNLLQFYLTHLASTLVPPMKLDMRDSMTPSFSQTESPNSETDDSTSAANKVLFSILGTPTTDSTSNAVSKSSSKLCSVCGDKSTGLHYGAATCEGCKGFFKRSVQNKKVYHCSQDNCCEIDKQNRNRCQSCRFRKCISKGMLTEAVREDRMPGGRNGNSIYSNYKQRRSIIRKTKDYVEEQERRPFQSLPSGKKLIKELVEMDCLDRLINLKGLRINPSANCDIAPACKRLTRIGDEIVEQLVEWTKTLPFFDELPVEAHTHLLTQRWAELVLLSAGYYACSVFTPDSPDTTEMIDETDEISFTNPQVNLRLLQNRLSLVLGKEIPLEHVAKEAGPLVTRFTTLLHSFSNLKVSPEAYVCIKAITLLHLSADSTLDRSIIDKVNTLQDHFVKTLQIHLHQPGEDAQTTSLAQILDWLPDLRNASSVLLHSKMFYVPFLLCKNPRRLVFDE, MDVDLAAPMSESEKLLYRSNLLGSDKRITNYGGGNTSAKVIETDPLTGEPAEVLWVKGSGGDVGSIRMDGFATLYMDKLNALRGIYRGGEHEDEMVAFLRHCTFNLNPRAASIDTPLHAYVPAKHVDHMHPDAIIAIAAAKDSKKLTQEIFGDRIGWLPWKRPGYELGLWLSDFCEKNPDAKGVVLESHGLFTWADDARECYERTLEIIQTAMDWFAEQTAGKPAFGGALEHHHHHH, MDVLIIGGGEAGLVAGCRALTMGQKVILVEKNGYLGGATILNGSNVVGTGSDVAAQIFDNNHDTPEMLAQDVARESLETNYPALTDLMVHNIGPAIDFISKFADLHYQKAQTQTPEHSINRQIELPSASSYEFIQKVSKAFAAAGGQIMLDTRVEKLMLDNDKKLRGVIAAQKDQTVNIKARSVVLAAGGHGANQKMRGTESEGIDYYGPMTSTGDAYQFNGDLDLQTHDLGWYKLYPHGVEVEPGVAKLTTYASKQATDMGAIYVNSKGDRIVNESNVYTTFRNAILKQADKVAYLVMDERTWKKVYDLLILHDFTPEEIKSFFENKGKRPVFVKGSLESAAEQAGIVVDELVQTVKNYQGYVQDGHDHDFGRDPKYLHQFEGETFYIIEQRDRFATTLGGYSVDADNLQLVTTKNAPVANYFGAGEIIGGANGHDSMPSMMNTWGISSGYVAGAAASENAQRQATAGAAALEHHHHHH, MDYDVLILGGGIIGCSIAYELSKYSLNVSLIEKEYEIGDDTSIVNSDLVYDGIESKYNFNYGLETEGNQEIEKICSVLSVPFKKVNAIVCSRDKENEDTINKIYSRGIKRGIKDASLANIESAIAKSIILKDINNKGIELKDIGIVCADDLALAYGEVAFDNGVNFRLNEKVIEIKKISKGFNVTTSKNKFTCKIVINTIPDASSPILVDGKEDKGSKKNISNLIYFVLDRKVKASLKHAIAVLSNKGDSTYIFRDFEDNIIVKIVTKDDCLYDEALDKLKAVIGDIEEEDIIYFYKSRFINDKIVITNKLDSDGYIKVQCKSYAISTVTPSISRNVGEAIVKNLNCKLKKEFYGRRREIYRFRDMSNKQRQKLIATNPDYGKIICRCNQVTEGEIIDSIRRPLGARTLNGIKRRTGVFNGECLGTCCIDKIVKILAKETNKSLTEVIKKTENSSIVKGRIKEFDEMLEHHHHHH
